Measured values: a protein production outcome set (Wang et al. 2014)

experiment: label from the status in PepcDB records
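Further: failed if final PepcDB status was selected cloned or expressed and not failed if soluble or beyond.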

| Sequence | protein production |
| --- | --- |
| MSLIDFHVHLDLYPDPVAVARACEERQLTVLSVTTTPAAWRGTLALAAGRPHVWTALGFHPEVVSERAADLPWFDRYLPETRFVGEVGLDGSPSLRGTWTQQFAVFQHILRRCEDHGGRILSIHSRRAESEVLNCLEANPRSGTPILHWYSGSVTELRRAISLGCWFSVGPTMVRTQKGAALIRSMPRDRVLTETDGPFLELDGQAALPWDVKSVVEGLSKIWQIPASEVERIVKENVSRLLGTVREGHHHHHH | not failed |
| MSLIIDGHTHVILPVEKHIKIMDEAGVDKTILFSTSIHPETAVNLRDVKKEMKKLNDVVNGKTNSMIDVRRNSIKELTNVIQAYPSRYVGFGNVPVGLSENDTNSYIEENIVNNKLVGIGELTPASGQIKSLKPIFKYSMDSGSLPIWIHAFNPLVLQDIKEIAELCKAFPKVPVILGHMGGSNWMTAVELAKEIQNLYLDTSAYFSTFVLKIVINELPLKCIFGTDMPFGDLQLSIEAIKKMSNDSYVANAVLGDNISRLLNIEGHHHHHH | not failed |
| MSLIIQVSPAGSMDLLSQLEVERLKKTASSDLYQLYRNCSLAVLNSGSHTDNSKELLDKYKNFDITVMRRERGIKLELANPPEHAFVDGQIIKGIQEHLFSVLRDIVYVNMHLADSQRLNLTNATHITNLVFGILRNAGALIPGATPNLVVCWGGHSINEVEYQYTREVGHELGLRELNICTGCGPGAMEGPMKGAAVGHAKQRYSEYRYLGLTEPSIIAAEPPNPIVNELVIMPDIEKRLEAFVRMAHGIIIFPGGPGTAEELLYILGIMMHPENADQPMPIVLTGPKQSEAYFRSLDKFITDTLGEAARKHYSIAIDNPAEAARIMSNAMPLVRQHRKDKEDAYSFNWSLKIEPEFQLPFEPNHESMANLDLHLNQRPEVLAANLRRAFSGVVAGNVKAEGIREIERHGPFEMHGDPVLMKKMDQLLNDFVAQNRMKLPGGSAYEPCYKIVTEGHHHHHH | not failed |
| MSLILCIDVGNSHIYGGVFDGDEIKLRFRHTSKVSTSDELGIFLKSVLRENNCSPETIRKIAICSVVPQVDYSLRSACVKYFSIDPFLLQAGVKTGLNIKYRNPVEVGADRIANAIAATHSFPNQNIIVIDFGTATTFCAISHKKAYLGGAILPGLRLSADALSKNTAKLPSVEIIKTESVVGRSTIESIQSGVYYGVLGACKELIQRIHHEAFNGDQILILATGGFASLFDKQGLYDHLVPDLVLQGIRLAAMMNTAEGHHHHHH | not failed |
| MSLIRWLVERWLEFMGNHPFLFGTLAILIVLFFIFEGQRNGRKISPQSLGILIKAKNAQLIDLRDAKDFREGHISGSRNIPYSQITSHVDELKASERPLVFICNLGQVAGSALQKIGHADSYRLDGGISNWKAQGLPLVKAKTKA | failed |
| MSLKDVSLSSFDAHDLDLDKFPEVVRDRLTQFLDAQELTIADIGAPVTDAVAHLRSFVLNGGKRIRPLYAWAGFLAAQGHKNSSEKLESVLDAAASLEFIQACALIHDDIIDSSDTRRGAPTVHRAVEADHRANNFEGDPEHFGVSVSILAGDMALVWAEDMLQDSGLSAEALARTRDAWRGMRTEVIGGQLLDIYLESHANESVELADSVNRFKTAAYTIARPLHLGASIAGGSPQLIDALLHYGHDIGIAFQLRDDLLGVFGDPAITGKPAGDDIREGKRTVLLALALQRADKQSPEAATAIRAGVGKVTSPEDIAVITEHIRATGAEEEVEQRISQLTESGLAHLDDVDIPDEVRAQLRALAIRSTERREGHHHHHH | not failed |
| MSLKENKYDDKHFFEQYSQMPRSKEGLKAAGEWHELKKMLPDFNQKTVLDLGCGFGWHCIYAAEHGAKKVLGIDLSERMLTEAKRKTTSPVVCYEQKAIEDIAIEPDAYNVVLSSLALHYIASFDDICKKVYINLKSSGSFIFSVEHPVFTADGRQDWYTDETGNKLHWPVDRYFNESMRTSHFLGEDVQKYHRTVTTYIQTLLKNGFQINSVIEPEPAPELKDLPEMQDEYRRPMMLLISATKQEGHHHHHH | not failed |
| MSLKHYSIQPANLEFNAEGTPVSRDFDDVYFSNDNGLEETRYVFLGGNQLEARFPEHPHPLFVVAESGFGTGLNFLTLWQAFDQFREAHPQAQLQRLHFISFEKFPLTRADLALAHQHWPELAPWAEQLQAQWPMPLPGCHRLLLDEGRVTLDLWFGDINELISQLDDSLNQKVDAWFLDGFAPAKNPDMWTQNLFNAMARLARPGGTLATFTSAGFVRRGLQEAGFTMQKRKGFGRKREMLCGVMEQTEGHHHHHH | not failed |
| MSLKIAVTGGTGFLGQYVVESIKNDGNTPIILTRSIGNKAINDYEYRVSDYTLEDLINQLNDVDAVVHLAATRGSQGKISEFHDNEILTQNLYDACYENNISNIVYASTISAYSDETSLPWNEKELPLPDLMYGVSKLACEHIGNIYSRKKGLCIKNLRFAHLYGFNEKNNYMINRFFRQAFHGEQLTLHANSVAKREFLYAKDAAKSVIYALKQEKVSGTFNIGSGDALTNYEVANTINNAFGNKDNLLVKNPNANEGIHSSYMDSSKAKELLDFSTDYNFATAVEEIHLLMRGLDDVPLWYEGHHHHHH | not failed |
| MSLKICVIGSSGHFRYALEGLDEECSITGIAPGVPEEDLSKLEKAISEMNIKPKKYNNWWEMLEKEKPDILVINTVFSLNGKILLEALERKIHAFVEKPIATTFEDLEKIRSVYQKVRNEVFFTAMFGIRYRPHFLTAKKLVSEGAVGEIRLVNTQKSYKLGQRPDFYKKRETYGGTIPWVGIHAIDWIHWITGKKFLSVYATHSRLHNSGHGELETTALCHFTLENEVFASLSIDYLRPQGAPTHDDDRMRIVGTRGIVEVINERVFLTDEKGHREVPLVEKGQIFEDFLREIRGQGKCMVTPEDSILTTEIALKARLSADTGQIVLIEGHHHHHH | not failed |
| MSLKISLENVGCASQIGKRKENEDRFDFAQLTDEVLYFAVYDGHGGPAAADFCHTHMEKCIMDLLPKEKNLETLLTLAFLEIDKAFSSHARLSADATLLTSGTTATVALLRDGIELVVASVGDSRAILCRKGKPMKLTIDHTPERKDEKERIKKCGGFVAWNSLGQPHVNGRLAMTRSIGDLDLKTSGVIAEPETKRIKLHHADDSFLVLTTDGINFMVNSQEICDFVNQCHDPNEAAHAVTEQAIQYGTEDNSTAVVVPFGAWGKEGHHHHHH | not failed |
| MSLKITKVEVIPISTPMKRAQLMRGATLARIDGVLLKLHSDEGLVGIADAGDTSSWYRGETQDSITSMICDFFAPKVLLGEDPTKIEKIVGRMDILTRDNNQAKATVDFALHDLVGKRFGVPVYQLLGGKTIERIPLGLVLGAGEPEAVAEEALAVLREGFHFVKLKAGGPLKADIAMVAEVRRAVGDDVDLFIDINGAWTYDQALTTIRALEKYNLSKIEQPLPAWDLDGMARLRGKVATPIYADESAQELHDLLAIINKGAADGLMIKTQKAGGLLKAQRWLTLARLANLPVICGCMVGSGLEASPAAHLLAANDWIAQFPQENAGPLHIHDCLNSRDIDNDIALNVPRFEGGYLYPNDGPGLGIELNEDLVRRLVTPGKAARVVTAEGHHHHHH | not failed |
| MSLKITRIDIHRTDLPVRGGVYRLSGGREYHSYDATIVSIETDTGLTGWGESTPFGSTYIAAHAGGTRAALELLAPAILGMDPRQHDRIWDRMRDTLKGHRDARAALDIACWDIAAQAAGLPLCDMTGGRVAGPVPVISSIGGDTPEAMRAKVARHRAQGFKGHSIKIGASEAEGGPALDAERITACLADRQPGEWYLADANNGLTVEHALRMLSLLPPGLDIVLEAPCASWAETKSLRARCALPLLLDELIQTETDLIAAIRDDLCDGVGLKVSKQGGITPMLRQRAIAAAAGMVMSVQDTVGSQISFAAILHLAQSTPRHLLRCALDTRAMTTAELAEIDAPLRDGGASAPSDPGLGLRVNRDALGTPVKTFGDPIEGHHHHHH | not failed |
| MSLKKVLLCVGNELRGDDGVAIALGRLVEEQMPEWSVFFGYDTPESEFGKLRELAPDVIVVADAMSGFKEGEIEFLDLSDERTYLYSTHNLPTPILISYLRGICSKTIFLGISVLLENVLHFSEGLSQGASDSAFVALGRIKELDGMLKEGHHHHHH | not failed |
| MSLKKVVIIGGGAAGMSAASRVKRLKPEWDVKVFEATEWVSHAPCGIPYVVEGLSTPDKLMYYPPEVFIKKRGIDLHLNAEVIEVDTGYVRVRENGGEKSYEWDYLVFANGASPQVPAIEGVNLKGVFTADLPPDALAIREYMEKYKVENVVIIGGGYIGIEMAEAFAAQGKNVTMIVRGERVLRRSFDKEVTDILEEKLKKHVNLRLQEITMKIEGEERVEKVVTDAGEYKAELVILATGIKPNIELAKQLGVRIGETGAIWTNEKMQTSVENVYAAGDVAETRHVITGRRVWVPLAPAGNKMGYVAGSNIAGKELHFPGVLGTAVTKFMDVEIGKTGLTEMEALKEGYDVRTAFIKASTRPHYYPGGREIWLKGVVDNETNRLLGVQVVGSDILPRIDTAAAMLMAGFTTKDAFFTDLAYAPPFAPVWDPLIVLARVLKEGHHHHHH | not failed |
| MSLKNSSRSAVDPFIVMDVMEAARRAEEAGRRIIHMEVGQPGTGAPRGAVEALAKSLETDALGYTVALGLPALRQRIARLYGEWYGVDLDPGRVVITPGSSGGFLLAFTALFDSGDRVGIGAPGYPSYRQILRALGLVPVDLPTAPENRLQPVPADFAGLDLAGLMVASPANPTGTMLDHAAMGALIEAAQAQGASFISDEIYHGIEYEAKAVTALELTDECYVINSFSKYFSMTGWRVGWMVVPEDQVRVVERIAQNMFICAPHASQVAALAALDCDAELQANLDVYKANRKLMLERLPKAGFTRIAPPDGAFYVYADVSDLTDDSRAFAAEILEKAGVAVTPGLDFDPERGAGTLRFSYARATADIEEGLDRLEAFMQARGEGHHHHHH | not failed |
| MSLKQKILIVEDSMTIRRMLIQAIAQQTGLEIDAFDTLEGARHCQGDEYVVALVDLTLPDAPSGEAVKVLLERGLPVVILTADISEDKREAWLEAGVLDYVMKDSRHSLQYAVGLVHRLYLNQQIEVLVVDDSRTSRHRTMAQLRKQLLQVHEASHAREALATLEQHPAIRLVLVDYYMPEIDGISLVRMLRERYSKQQLAIIGISVSDKRGLSARYLKQGANDFLNQPFEPEELQCRVSHNLEALEQFNSEGHHHHHH | not failed |
| MSLKQQFSTKAFQAANLEAYKAQMKEMEESFGALLRQLPSDTEVPGLLEDITRTGLGSGLEFEEIKLLPEVAQQFYIELPIQISVVGGYHDLATFVSGVSSLPRIVTLHDFEIKPVAPGSTSKLRMSILAKTYRYNDKGEGHHHHHH | not failed |
| MSLKTYKGYLIDLDGTMYNGTEKIEEACEFVRTLKDRGVPYLFVTNNSSRTPKQVADKLVSFDIPATEEQVFTTSMATAQHIAQQKKDASVYVIGEEGIRQAIEENGLTFGGENADFVVVGIDRSITYEKFAVGCLAIRNGARFISTNGDIAIPTERGLLPGNGSLTSVLTVSTGVQPVFIGKPESIIMEQAMRVLGTDVSETLMVGDNYATDIMAGINAGMDTLLVHTGVTKREHMTDDMEKPTHAIDSLTEWIPYIEGHHHHHH | not failed |
| MSLKYQLRFGGEGGQGVITAGEILAEAAIKEGRQAFKASTYTSQVRGGPTKVDIIIDDKEILFPYAVEGEVDFMLSTADKGYKGFRGGVKEGGIIVVEPNLVHPESEDYKKWQIFEIPIITIAKDEVGNVATQSVVALAIAAYMSKCIDLDVLKETMLHMVPAKTRDANAKAFDLGVKYATQAKPHEGHHHHHH | not failed |
| MSLLERLNQDMKLYMKNREKDKLTVVRMVKASLQNEAIKLKKDSLTEDEELTVLSRELKQRKDSLQEFSNANRLDLVDKVQKELDILEVYLPEQLSEEELRTIVNETIAEVGASSKADMGKVMGAIMPKVKGKADGSLINKLVSSQLS | not failed |
